Values quoted from earlier work, collected in PMC1854907.
pKd: −log10 of the molar value.

Target: SCP2 PTS1 peptide (Homo sapiens)
Assay: ITC

pKd: 6.18
Substance: Pex5p(C) C-terminal domain (from UniProt P50542)
